Square brackets hold non-standard residues; d marks the D form. Ends that are not written are not given here. * marks the point of attachment. Biotin = O=C1N[C@H]2[C@H](CS[C@H]2CCCCC(=O)*)N1; pS = N[C@@H](COP(=O)(O)O)C(=O)O
T1: TDP-43 peptide consisting of amino acid sequence (SEQ ID NO: 5) (comprising pS375 and pS379) (human)
T1 construct: also called target peptide
T1 peptide: GNNSY[pS]GSN[pS]GAAIG

T2: Peptide 28 (human, phosphoserine at pS403 and pS404 (human TDP-43 numbering, in the SEQ ID NO: 8 part); Trioxatridecan-succinamic acid (Ttds) linker between SEQ ID NO: 7 and SEQ ID NO: 8)
T2 peptide: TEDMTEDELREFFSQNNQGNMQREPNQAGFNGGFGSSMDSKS

T3: Peptide 29 (human, phosphoserine at pS409 and pS410 (human TDP-43 numbering, in the SEQ ID NO: 9 part); Trioxatridecan-succinamic acid (Ttds) linker between SEQ ID NO: 7 and SEQ ID NO: 9)
T3 peptide: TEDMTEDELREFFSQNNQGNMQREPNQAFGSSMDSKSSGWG

T4: biotinylated TDP-43 phospho peptide 396-409 (pS403) (human, phosphoserine at 403 (SEQ ID NO: 1 numbering); biotin on the N-terminus)
T4 peptide: GFNGGFGSSMDSKS

T5: biotinylated TDP-43 phospho peptide 401-413 (pS410) (human)
T5 peptide: Biotin-FGSSMDSKS[pS]GWG

T6: biotinylated TDP-43 phospho peptide 396-409 (pS404) (human)
T6 peptide: Biotin-GFNGGFGS[pS]MDSKS

T7: biotinylated non-phosphorylated TDP-43 peptide 366-414 (human, biotin on the N-terminus)
T7 peptide: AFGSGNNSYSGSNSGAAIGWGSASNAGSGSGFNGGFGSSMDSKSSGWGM

T8: biotinylated TDP-43 phospho peptide 396-409 (pS403 and pS404) (human, phosphoserine at 403 and 404 (SEQ ID NO: 1 numbering); biotin on the N-terminus)
T8 peptide: GFNGGFGSSMDSKS

T9: biotinylated TDP-43 phospho peptide 401-413 (pS409) (human)
T9 peptide: Biotin-FGSSMDSK[pS]SGWG

T10: biotinylated TDP-43 phospho peptide 401-413 (pS409 and pS410) (human)
T10 peptide: Biotin-FGSSMDSK[pS][pS]GWG


Columns and labels:
[1] = target: T1, TDP-43 peptide consisting of amino acid …; experiment: SPR, antibody on chip, peptide analyte
Procedure: For antibodies ACI-8070-942.30D12-Ab1 and ACI-7071-809F12-Ab1-rec2 affinity was measured on Biacore 5200 instrument (Cytiva, Switzerland). The instrument was primed with running buffer HBS-P+ (10× HBS-P+ diluted to 1× in Milli-Q water) and flow-cells (Fc) 1-4 of a CM7 Series S sensor chip (Cytiva, 29147020) were activated with a fresh solution of EDC/NHS (Amine Coupling Kit type 2, BR100633, Cytiva) 1:1 ratio of both reagents at 10 μL/min for 420 sec and polyclonal rabbit anti-mouse IgG antibody (Cytiva, 29215281) was immobilized at […] in 10 mM sodium acetate pH 5.0 for 420 sec. Next, all Fc were quenched with 1 M ethanolamine (Cytiva, BR100633) for 420 sec. Immobilization levels were evaluated following ethanolamine quenching. A mouse IgG2a isotype control antibody and ACI-8070-942.30D12-Ab1 were captured on Fc 1 and Fc 2, respectively. Antibodies were diluted in 10 mM sodium acetate pH5.5 to a final concentration of 50 μg/mL and injected using the aim immobilization level functionality with a target of 10000 RU. […] Results obtained from single-cycle kinetics were double-referenced using the blank Fc 1 and buffer cycles and evaluated using the Biacore Insight Evaluation software (Cytiva). […]

Peptide 28 = target: T2, Peptide 28; experiment: SPR Biacore 8K, antibody captured, peptide analyte, single-cycle kinetics, 1:1 fit
Procedure: (§1) Each cycle started with the non-covalent capture of the antibody which were diluted in running buffer to a final concentration of 5 μg/mL and injected for 120 sec with a flow rate of 10 μL/min. Antibodies being measured were captured in channels […], leaving Fc 1 as a blank Fc. Capture levels were evaluated following a 120 sec stabilization period after each antibody injection. ACI-7071-809F12-Ab1-rec2 was used as control, binding to the non-phosphorylated sequences represented in peptides 28 and 29.
(§2) Injections of peptides 28 or 29 were performed using single-cycle kinetics with increasing concentrations ranging from 1.2 to 100 nM prepared as a 3-fold serial dilution. Injections were performed with contact times of 300 sec/injection at a flow rate of 30 μL/min. A dissociation phase of 900 sec followed the final injection. Sensor surface was regenerated by two injection of 10 mM Glycine-HCl pH 1.7 at a flow rate of 10 μL/min for 60 sec, followed by a stabilization period of 120 sec. Results obtained from single-cycle kinetics were double-referenced using the blank Fc 1 and buffer cycles and evaluated by Biacore 8K evaluation software (Cytiva). The following kinetic parameters were obtained using the 1:1 binding fit model with variable Reflective Index (RI): association rate constant (ka), dissociation rate constant (kd), affinity constant (KD) and saturation response (Rmax).

Peptide 29 = target: T3, Peptide 29; experiment: as above
Procedure: as §1, §2

[2] = target: T11, recombinant full length TDP-43 (SEQ ID NO: 1, FL TDP-43) (human, UniProt Q13148 1-414); experiment: pairing sandwich ELISA, antibody coated as capture, FL TDP-43 titrated
T11 construct: also called recombinant human soluble FL TDP-43; soluble human TDP-43
Procedure: (§3) The capacity of antibodies to bind phospho TDP-43 and TDP-43 was determined using a sandwich enzyme-linked immunosorbent assay (ELISA), where each antibody was paired with a second TDP-43 antibody previously characterized for TDP-43 binding and performance in sandwich immunoassays, ACI-7071-809F12-Ab1-rec2 (as described in WO2020234473) or ACI-7069-636E5-Ab1 (as described in WO2020234473). ELISA plates (Nunc™ Edge™ 96-Well, Non-Treated, Flat-Bottom Microplate, ThermoFisher Scientific, Denmark) were coated with 5 μg/mL of anti-phospho TDP-43 or anti-TDP-43 antibodies in carbo/bicarbonate buffer, overnight at 4° C. Plates were then washed with 0.05% Tween-20/PBS and blocked with 1% bovine serum albumin (BSA) in 0.05% Tween-20/PBS for 1 hour at 37° C. The plates were then washed again as described above.
Serial-dilutions of target peptide or protein were then added to the plates. For assays with anti-phospho TDP-43 antibodies, one of four peptide conjugates (peptides 11, 23, 28, or 29) each composed of two TDP-43 sequences, one phosphorylated and one non-phosphorylated, conjugated together with a Trioxatridecan-succinamic acid linker (Ttds, binding regions and sequences shown in Table 4) were used. Peptides 11, 23, 28, and 29 were added in a 10-fold serial dilution starting at 0.5 μM. For assays with TDP-43 antibodies only, recombinant full length TDP-43 (SEQ ID NO: 1, FL TDP-43) was diluted 3-fold from 21.9 pM. Plates were incubated for 1 hour at 37° C., and then washed. […] PEG-biotinylated phospho TDP-43 or TDP-43 antibodies were then respectively added to the wells and incubated for 1 hour at 37° C., after which the plates were washed. Horseradish peroxidase (HRP)-conjugated streptavidin (R&D Systems, Switzerland) was added at 1/200 dilution in 1% BSA and 0.05% Tween-20/PBS for 45 min at room temperature. […] The plate was read at 450 nm using an ELISA plate reader (Tecan, Switzerland).

[3] = target: T4, biotinylated TDP-43 phospho peptide …; experiment: capture ELISA, antibody on anti-mouse IgG, biotinylated peptide
Procedure: (§4) Briefly, for capture detection in ELISA, wells of 96-well plates were coated with 5 μg/mL goat anti-mouse IgG (Fc gamma fragment specific), in carbonate buffer, overnight at 4° C. Plates were then washed with 0.05% Tween-20/PBS and blocked with 1% bovine serum albumin (BSA) in 0.05% Tween-20/PBS for 1 hour at 37° C. Phospho TDP-43 antibodies were then added at 5 μg/mL and incubated for 2 hours at 37° C. after which the plates were washed as described above. Biotinylated peptides representing each of the phospho sites, or non-phosphorylated, were incubated at 0.5 mM in 0.1% BSA and PBS for 1 hour at 37° C. after which the plates were washed. A streptavidin-HRP-conjugate (R&D Systems, Minnesota, United States) was added at 1/200 dilution in 0.05% Tween-20/1% BSA in PBS for 45 minutes in the dark at ambient temperature. After the final wash, plates were incubated with TMB (Sigma-Aldrich, Switzerland), an HRP substrate solution, and read at 405 nm using an ELISA plate reader (Tecan, Switzerland).

[4] = target: T5, biotinylated TDP-43 phospho peptide …; experiment: as above
Procedure: as §4

[5] = target: T6, biotinylated TDP-43 phospho peptide …; experiment: as above
Procedure: as §4

[6] = target: T7, biotinylated non-phosphorylated TDP-43 …; experiment: as above
Procedure: as §4

[7] = target: T8, biotinylated TDP-43 phospho peptide …; experiment: as above
Procedure: as §4

[8] = target: T9, biotinylated TDP-43 phospho peptide …; experiment: as above
Procedure: as §4

[9] = target: T10, biotinylated TDP-43 phospho peptide …; experiment: as above
Procedure: as §4

[10] = target: T11, recombinant full length TDP-43 (SEQ ID …); experiment: pairing sandwich ELISA, biotinylated antibody as detector, FL TDP-43 titrated
Procedure: as §3
Serial-dilutions of target peptide or protein were then added to the plates. For assays with anti-phospho TDP-43 antibodies, one of four peptide conjugates (peptides 11, 23, 28, or 29) each composed of two TDP-43 sequences, one phosphorylated and one non-phosphorylated, conjugated together with a Trioxatridecan-succinamic acid linker (Ttds, binding regions and sequences shown in Table 4) were used. Peptides 11, 23, 28, and 29 were added in a 10-fold serial dilution starting at 0.5 μM. […] The plate was read at 450 nm using an ELISA plate reader (Tecan, Switzerland).

[11] = target: T11, recombinant full length TDP-43 (SEQ ID …); experiment: SPR Biacore T200, FL TDP-43 immobilized, antibody analyte (avidity), 1:1 fit
Procedure: Binding avidity of ACI-7071-4665-B5-R3B-Ab2 to soluble FL TDP-43 was evaluated by determining the KD value using SPR (Biacore T200, GE Healthcare Life Sciences). Recombinant human soluble FL TDP-43 was immobilized on a CM5 Series S sensor chip (GE Healthcare Life Sciences) by amine coupling. Soluble TDP-43 was immobilized at a concentration of 5 μg/ml in 10 mM sodium acetate (pH 4.5) with a flow rate of 5 μl/min for 420 seconds resulting in an immobilization level of 150 RU. […] Antibodies were injected at a flow rate of […] for 90 seconds contact time and 700 seconds dissociation phase followed by three regenerations with 10 mM glycine-HCl (pH 1.7). For the optimized SPR protocol the antibodies were diluted 3-fold starting from 300 nM and dilute down to 1.2 nM and injected for 300 seconds at 30 μL/min followed by 600 seconds of dissociation. The chip surface was regenerated by one injection with 10 mM glycine-HCl (pH 1.7). Results obtained from binding kinetics were double referenced using a blank flow cell and a buffer cycle, and were evaluated with a global 1:1 fitting model with RI.

binding result [1] | Kd (Peptide 28) | koff (Peptide 28) | kon (Peptide 28) | Kd (Peptide 29) | koff (Peptide 29) | kon (Peptide 29) | EC50 [2] | binding result [3] | binding result [4] | binding result [5] | binding result [6] | binding result [7] | binding result [8] | binding result [9] | EC50 [10] | Kd [11] | koff [11] | kon [11] | Binder
no binding | 4.5 nM | 0.00231 s⁻¹ | 514000 M⁻¹ s⁻¹ | 7 nM | 0.00343 s⁻¹ | 490000 M⁻¹ s⁻¹ | 0.181 nM | – | – | – | – | – | – | – | – | – | – | – | ACI-7071-809F12-Ab1-rec2 (as described in WO2020234473) (antibody, V domains shown, also called 809F12D8) VH: QVQLKESGPGLVAPSQSLSITCTVSGFSLNRNGVQWVRQPPGKGLEWLGVIWPGGSTNCNSALMSRLSISKDNSKSQVFLKMNSLHTDDTGIYYCARVGGNYVWDYNNYAWGQGTLVTVSA VL: DVLMTQTPLSLPVSLGDQASISCRSSQNIVHSIGNTYLEWYLQKPGQSPKLLIYKVSNRFSGVPDRFSGSGSGTDFTLKISRVEAEDLGVYYCFQGSHVPYTFGGGTKLEIR
– | – | – | – | – | – | – | 0.072 nM | no binding (tested: peptide at 0.5 mM) | no binding (tested: peptide at 0.5 mM) | no binding (tested: peptide at 0.5 mM) | binds | no binding (tested: peptide at 0.5 mM) | no binding (tested: peptide at 0.5 mM) | no binding (tested: peptide at 0.5 mM) | 0.181 nM | 0.39 nM | 1.66e-05 s⁻¹ | 42900 M⁻¹ s⁻¹ | ACI-7071-4665-B5-R3B-Ab2 (antibody, mouse IgG2a, V domains shown, also called 4665-B5-R3B-B8; ACI-7071-4665-B5-Ab2) VH: QVQLKQSGPELVKPGASVKLSCKASGYTFTTYDINWVKQRPGQGPEWIGWIYPRVGNTKYNEKFKDKATLTVDTSSSTAYMELHSLTSEDSAVYFCASALTYWGQGTLVTVSA VL: not shown
– | – | – | – | – | – | – | – | no binding (tested: peptide at 0.5 mM) | no binding (tested: peptide at 0.5 mM) | no binding (tested: peptide at 0.5 mM) | no binding (tested: peptide at 0.5 mM) | no binding (tested: peptide at 0.5 mM) | no binding (tested: peptide at 0.5 mM) | no binding (tested: peptide at 0.5 mM) | – | – | – | – | ACI-8070-942.30D12-Ab1 (antibody, V domains shown, Mouse hybridoma antibody; also called 942.30D12F9; pS375/pS379 TDP-43 antibody) VH: DVQLVESGGGLVQPGGSRKLSCEASGFTFSSIGMHWVRQAPEKGLEWVAYITSGSSTIYYADTVKGRFTISRDNPKNTLFLQMTSLRSEDTAIYYCAGSGPGTDYWGQGTTLTVSS VL: DIKMTQSPSSMYASLGERVTITCKASQDINSYLSWFQQKPGKSPKTLIYRANRLVDGVPSRFSGSGSGQDYSLTISSLEYEDMGIYYCLQYDEFPLTFGAGTKLELK

From patent publication US20260043816A1 (AC IMMUNE, published 2026)
